Source: publication PMC11277097, “MRAP2a Binds and Modulates Activity and Localisation of Prokineticin Receptor 1 in Zebrafish” (International Journal of Molecular Sciences, 2024)

What was measured:
[1] = molecular target: the molecule itself; assay: native gel or EMSA; blue native PAGE, 20 ug purified CT-MRAP2 domain on Native PAGE Novex 3% to 16% Bis-Tris gels, 0 °C; blot with anti-His
[2] = molecular target: the molecule itself; assay: SDS-PAGE; purified zCT-MRAP2a, electrophoresis under denaturing conditions

B1: C-terminal domain of zebrafish MRAP2a, His-tagged (zCT-MRAP2a) (domain or fragment, UniProt F8W4H9 73-217, looked up)
chain: EAAEPYEKRMRLTSCADGLGRQRETDGRTGLSRPLLEESRSLFHCYINEEEREGGRAATDAGALTHGRSGIGNSRGQVEEVGLVVQNMVLESRAEREAALLAHFNIPNFVNSELNSALGDEDLLLGDPPIIMEEARPRCTHHIID
notes: zebrafish MRAP2a, C-terminal domain, the region from residue 73 to residue 217 encoded by the third exon; cloned by PCR from plasmid XM_021473026.1 into pet28; also called zCT-MRAP2a domain; pet 28zCT-MRAP2; source: E. coli, purified (His-tagged protein purification kit)
- stoichiometry N [1]: ~2
- stoichiometry N [2]: 2
